The values that follow come from publication PMC4158885 (The EMBO Journal, 2014).

Series [1] deals with the molecule itself. Kind of series: crystal structure; ctPan3 PKC bound to ctPan2 343–458, P21 symmetry, two copies of the complex in the asymmetric unit, molecular replacement.
Series [2] deals with T1, ctPan2 Δ353–375 (PID deletion in full-length ctPan2) (Chaetomium thermophilum, UniProt G0SAK8 1-1170, Δ353–375).
T1 construct: Pan2, Chaetomium thermophilum, full-length context with an internal deletion of residues 353-375
T1 sequence (looked up): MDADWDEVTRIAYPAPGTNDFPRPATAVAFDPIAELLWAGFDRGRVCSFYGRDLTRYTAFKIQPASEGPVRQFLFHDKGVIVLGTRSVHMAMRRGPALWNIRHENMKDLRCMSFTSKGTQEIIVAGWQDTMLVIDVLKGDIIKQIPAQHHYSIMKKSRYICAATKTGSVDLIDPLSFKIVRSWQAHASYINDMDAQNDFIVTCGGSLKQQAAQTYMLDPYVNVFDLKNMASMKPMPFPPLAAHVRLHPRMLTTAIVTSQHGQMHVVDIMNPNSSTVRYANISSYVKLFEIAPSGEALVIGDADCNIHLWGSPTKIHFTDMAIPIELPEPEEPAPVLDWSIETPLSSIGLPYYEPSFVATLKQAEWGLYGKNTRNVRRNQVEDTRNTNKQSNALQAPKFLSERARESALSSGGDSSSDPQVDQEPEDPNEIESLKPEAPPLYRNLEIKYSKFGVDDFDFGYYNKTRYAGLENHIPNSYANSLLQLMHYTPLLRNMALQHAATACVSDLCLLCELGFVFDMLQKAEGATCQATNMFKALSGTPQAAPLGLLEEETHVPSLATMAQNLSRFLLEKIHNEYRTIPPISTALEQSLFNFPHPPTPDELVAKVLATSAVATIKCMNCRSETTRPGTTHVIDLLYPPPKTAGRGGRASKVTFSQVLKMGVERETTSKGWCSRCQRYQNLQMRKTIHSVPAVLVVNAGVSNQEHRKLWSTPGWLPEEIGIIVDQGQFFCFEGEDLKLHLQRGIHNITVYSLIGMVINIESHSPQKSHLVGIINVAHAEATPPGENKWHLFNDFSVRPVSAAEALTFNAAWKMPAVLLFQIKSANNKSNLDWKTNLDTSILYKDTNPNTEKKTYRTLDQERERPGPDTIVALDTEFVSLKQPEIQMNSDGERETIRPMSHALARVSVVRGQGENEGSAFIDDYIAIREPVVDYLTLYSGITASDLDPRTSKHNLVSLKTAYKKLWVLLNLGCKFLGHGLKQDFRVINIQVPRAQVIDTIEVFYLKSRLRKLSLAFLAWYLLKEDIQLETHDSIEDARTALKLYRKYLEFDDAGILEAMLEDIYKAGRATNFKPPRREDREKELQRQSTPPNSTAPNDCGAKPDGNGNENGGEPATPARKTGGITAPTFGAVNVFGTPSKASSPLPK
The series is described as follows: SEC; separately purified ctPan2 constructs and ctPan3 PKC dimer mixed 1:1 at 1 μM, 15 min at room temperature; Superdex 200 Increase 3.2/300 in 20 mM Tris pH 8.0, 500 mM NaCl, 2 mM TCEP; fractions on SDS–PAGE. Conditions: both partners purified.

B1: ctPan3 pseudokinase/C-terminal domain (PKC, residues 205–640), purified from E. coli (domain or fragment, Chaetomium thermophilum, UniProt G0S0Y3 205-640, looked up)
chain: RQELQPWQRATYDFFMPQNLREDLQKKQFATLQVIPNSGLPQLEHWHSLVPLDTSNRKNTSCFGYPSWVYKAQNSRNGRHYALRRLEGYRLTNEKAILNVMKDWKKIKNASIVTIHEVFTTREFGDSSLIFAYDFHPLSKTLQEHHFQPIHGNRYRPPPAVPENTIWGYICQIANALKTIHSNRLAARCLEPSKIILTDINRIRLSACAILDVVQFGMNSRSVVELQQEDFVKFGKLILSLATGTLPAHLNNIPAALETLGNKYSANLKSAVNWLLDTSSGETKTIEHFMTGIASQMTTFFDLALQDNDEKLFHLAREVENGRIARSLMKLLTILERGDYDGVPSWSETGDRYQLKLFRDYVFHRVDADGKPNLSIGHMLTCMSKLEAGVDENILLTSRDNETVFVLSYRELRQMYDRAFNELVKASKTGAPGANT
notes: Pan3, Chaetomium thermophilum, pseudokinase (242-497), coiled coil (499-538) and C-terminal domain (555-640), construct residues 205-640; The crystals of ctPan3 PKC alone (PDB 4CYI) were of Se-Met-labelled protein; also called ctPan3 PKC; ctPan3 PKC dimer; source: E. coli, purified (glutathione Sepharose)
Regarding B1, the binding result in series [1] and in series [2] was “binds” each time.
